In this assay the target is 9-strain panel of authentic SARS-CoV-2 viral isolates. The assay can be described thus: cell-based or functional assay.

B1: S2V29-v37.2 (antibody, V domains shown)
VH: EVQLVESGGSVVQPGRALRLSCAASGITFSSFGMYWVRQAPGKGLEWLGYIAYDGSDTYYADSVKGRFTISRDNSKNTLYLQMNSLRIEDTAVYYCAKDYYPLLSYYYGLDVWGQGTTVTVSS
VL: QSVLTQPRSVSGSPGQSVTISCTGTSSDVGAYNYVSWYQQHPGKAPKFMIYDVDQRPSGVPDRFSGSKSGNTASLIISGLQAEDEADYYCSSYAGSYIWVFGGGTQLTVL
Regarding B1, the IC50, authentic virus neutralization was in the range of 1.3 to 9.6 ng/mL and the median IC50, authentic virus neutralization worked out at 2 ng/mL.

The values above are taken from patent US20260274928A1.
